Results taken from publication PMC9546566.

Target: CRY1(Human)-3×FLAG (human) (UniProt Q16526)
Experiment: co-IP

Chain of UniProt Q16526 (Q16526 whole entry): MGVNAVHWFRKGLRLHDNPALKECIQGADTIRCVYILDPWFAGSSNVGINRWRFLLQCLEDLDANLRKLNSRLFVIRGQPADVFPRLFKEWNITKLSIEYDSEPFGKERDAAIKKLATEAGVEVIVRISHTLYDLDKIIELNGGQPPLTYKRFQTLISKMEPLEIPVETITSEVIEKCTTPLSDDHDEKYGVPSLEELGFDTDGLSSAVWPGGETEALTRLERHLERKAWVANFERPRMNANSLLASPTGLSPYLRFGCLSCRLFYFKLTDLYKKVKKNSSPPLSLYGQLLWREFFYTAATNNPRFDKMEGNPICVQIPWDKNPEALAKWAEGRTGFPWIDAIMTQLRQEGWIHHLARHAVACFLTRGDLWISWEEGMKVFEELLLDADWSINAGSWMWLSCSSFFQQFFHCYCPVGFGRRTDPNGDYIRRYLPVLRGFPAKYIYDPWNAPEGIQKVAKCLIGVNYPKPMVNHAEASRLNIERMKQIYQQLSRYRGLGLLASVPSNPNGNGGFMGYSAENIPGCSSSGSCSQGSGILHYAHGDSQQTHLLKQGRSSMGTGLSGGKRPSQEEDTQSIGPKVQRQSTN

PER2(Loris)-3×HA (natural protein)
ability to bind with CRY in co-IP (quantity and unit not named): 35.2
